Source: US20240417426A1

Columns and labels:
[1] = target: column ligand of the FLAG-Tag system (Prot)
[2] = target: column ligand of the Strep-Tag system (Prot)

Capacity [1] [mg/mL]	Kd [1] [µM]	Capacity [2] [mg/mL]	Kd [2] [µM]	Substance
0.6	0.001	–	–	FLAG-Tag (peptide)
–	–	6	1	Strep-Tag (peptide)
